The record followed here is PMC5458078, “Global mapping of CARM1 substrates defines enzyme specificity and substrate recognition” (Nature Communications, 2017).

One assay relates to HEK293T cells. The assay can be described thus: Western blot of FLAG-tagged TET2 with ADMA antibodies, wild type vs CARM1 KO. It counts as cell-based. On the procedure:
TET2, methylcytosine dioxygenase with a prominent role in DNA demethylation frequently mutated in various human cancers, was identified among novel CARM1 substrates. To assure its correct identification, we probed FLAG-tagged TET2 with ADMA antibody in wild type and CARM1 KO HEK293T cells (Fig. 2c).
(§1) Cells were collected by trypsinization, washed with Dulbecco's phosphate buffer saline (Life Technologies, Carlsbad, CA) and lysed by suspension in lysis buffer (50 mM Tris-HCl pH 8.0, 150 mM NaCl, 10% glycerol, 0.5% Triton X-100 and 1 × protease inhibitor cocktail (Sigma-Aldrich)). After brief sonication followed by centrifugation, total protein was quantified using the BioRad Protein Assay (BioRad, Hercules, CA), and 20 μg protein was resolved by SDS–PAGE. Proteins were transferred to a nitrocellulose membrane for 1.5 h at 350 mA. Membranes were blocked with 5% nonfat milk at room temperature for 1 h and incubated overnight with diluted primary antibody at 4 °C. Membranes were then washed and incubated with HRP-conjugated secondary antibody for 1 h at room temperature. Signal was visualized by enhanced chemiluminescence reagents (Thermo Scientific, Rockford, IL) and X-ray film exposure followed by scanning and digitalization. Me-PABP1 and PABP1 antibodies, me-BAF155 antibody[20] and me-MED12 antibody[30] were generated previously in the Xu lab. […]
On the technique in general: In western blotting, separated proteins are transferred to a membrane and probed.

The subject of assay [1] is HEK293T CARM1 KO cells. The assay can be described thus: Total ADMA levels after transient transfection, western blot. Type of assay: cell-based. The following applies: transient expression in HEK293T CARM1 KO cells. On the procedure: (§2) Next, we transiently transfected FL and the two aforementioned CARM1 truncations in HEK293T CARM1 KO cells and measured substrate methylation by western blotting with ADMA antibodies.
as §1

Assay [2] deals with BAF155, MED12, PABP1, NCOA3 and TET2. Nature of the assay: Co-immunoprecipitation of BAF155, MED12, PABP1, NCOA3 and TET2 with FLAG-tagged CARM1, western blot. Type of assay: cell-based. The following applies: FLAG-tagged construct transiently transfected in HEK293T CARM1 KO cells; anti-FLAG IP.
Text: The structure of the N-terminal domain of CARM1 (residues 28–140) resembles those of the EVH1 domains, a subfamily of PH domains that bind proline-rich sequences. With our discovery that CARM1 substrates contain proline-rich motifs, we posited that the protein's N-terminal domain may be required for substrate recognition. To test this hypothesis, we generated three CARM1 constructs: one full-length (CARM1 FL) and two N-terminal truncations CARM1 28–608 and CARM1 140–608 (Fig. 3a). […] We transiently transfected the three FLAG-tagged CARM1 fusion constructs in HEK293T CARM1 KO cells. CARM1 was immunoprecipitated from all three cell lines using anti-FLAG M2 resin, and four known CARM1 substrates/interactors (that is, BAF155 (ref. [20]), MED12 (ref. [30]), PABP1 (ref. [36]) and NCOA3 (ref. [19])) and newly identified TET2 were detected by western blotting. […] To globally assess the magnitude of reduction in CARM1–substrate interactions induced by the loss of the EVH1 domain, we visualized overall protein changes in CARM1 immunoprecipitates by western blotting using the ADMA antibody (Fig. 3c).
as §1, with “digitalization.” for “digitalization. Me-PABP1 and PABP1 antibodies, me-BAF155 antibody[20] and me-MED12 antibody[30] were generated previously in the Xu lab.”

The subject of assay [3] is HEK293T CARM1 KO cells. The assay can be described thus: Rescue of endogenous BAF155 and MED12 methylation, transient transfection, western blot. It counts as cell-based. The following applies: transient expression in HEK293T CARM1 KO cells. On the procedure:
as §2
Cells were collected by trypsinization, washed with Dulbecco's phosphate buffer saline (Life Technologies, Carlsbad, CA) and lysed by suspension in lysis buffer (50 mM Tris-HCl pH 8.0, 150 mM NaCl, 10% glycerol, 0.5% Triton X-100 and 1 × protease inhibitor cocktail (Sigma-Aldrich)). After brief sonication followed by centrifugation, total protein was quantified using the BioRad Protein Assay (BioRad, Hercules, CA), and 20 μg protein was resolved by SDS–PAGE. Proteins were transferred to a nitrocellulose membrane for 1.5 h at 350 mA. Membranes were blocked with 5% nonfat milk at room temperature for 1 h and incubated overnight with diluted primary antibody at 4 °C. Membranes were then washed and incubated with HRP-conjugated secondary antibody for 1 h at room temperature. Signal was visualized by enhanced chemiluminescence reagents (Thermo Scientific, Rockford, IL) and X-ray film exposure followed by scanning and digitalization. Me-PABP1 and PABP1 antibodies, me-BAF155 antibody[20] and me-MED12 antibody[30] were generated previously in the Xu lab. FLAG antibody (catalogue #F7425) was purchased from Sigma and used at a dilution of 1:5,000; BAF155 antibody (sc-10756) was purchased from Santa Cruz and used at a dilution of 1:1,000; MED12 antibody (ab70842) was purchased from Abcam (Cambridge, MA) and used at 1:1,000 dilution.

The subject of assay [4] is recombinant full-length BAF155 protein. The assay can be described thus: In vitro methylation of full-length FLAG-BAF155 by recombinant CARM1 proteins, autoradiography. Type of assay: biochemical. Particulars: 3H-SAM, 50 mM Tris-HCl pH 8.0, 100 mM NaCl, 0.5 mM EDTA, 1–4 h, 30 °C. On the procedure:
The FL and N-terminal domain-deleted version of human CARM1 cDNAs, and other PRMT FL cDNAs were cloned into pFN21K Halo Tag CMV Flexi mammalian expression vector (Promega, Madison, WI) using the unique Sgfl and Pmel site[55]. To express the protein, DNA constructs were transiently transfected into HEK293T CARM1 KO cells in 15 cm dishes using transIT-LT1 reagent (Mirus Bio, Madison, WI) according to the manufacturer's protocol. Proteins were allowed to express for 48 h. Cell pellets were then collected and lysed in lysis buffer (50 mM HEPES, pH 7.5, 150 mM NaCl, 0.005% NP-40, 0.5 mM EDTA, supplemented with 1 × protease inhibitor cocktail before use). The cells were sonicated on ice using a Branson Sonifier 450 with a microtip at 35% amplitude (10 s on, 30 s off, 6 cycles). […] The resin was centrifuged at 3,000 r.p.m. for 5 min, and the supernatant containing the cleaved protein was collected and protein concentration was determined using the Bradford assay (Thermo Scientific, Rockford, IL). Protein purity was assessed by running SDS–PAGE and Coomassie Blue staining.
CMX-Flag-BAF155 construct was generated by subcloning a PCR-amplified Flag-BAF155 fragment into the CMX-expression vector. […] Protein concentration was determined using Bradford assay and protein purity was assessed by SDS–PAGE and Coomassie Blue staining. […]

On to “TET2: FLAG-tagged TET2, methylcytosine dioxygenase”, for which, in the assay on HEK293T cells, the “ADMA modification of TET2 in the absence of CARM1” value was “complete disappearance of ADMA modification on TET2”.

B1: CARM1 28–608: CARM1 28–608 lacks the first, unstructured 28 residues (protein)
chain: TVSVFPGARLLTIGDANGEIQRHAEQQALRLEVRAGPDSAGIALYSHEDVCVFKCSVSRETECSRVGKQSFIITLGCNSVLIQFATPNDFCSFYNILKTCRGHTLERSVFSERTEESSAVQYFQFYGYLSQQQNMMQDYVRTGTYQRAILQNHTDFKDKIVLDVGCGSGILSFFAAQAGARKIYAVEASTMAQHAEVLVKSNNLTDRIVVIPGKVEEVSLPEQVDIIISEPMGYMLFNERMLESYLHAKKYLKPSGNMFPTIGDVHLAPFTDEQLYMEQFTKANFWYQPSFHGVDLSALRGAAVDEYFRQPVVDTFDIRILMAKSVKYTVNFLEAKEGDLHRIEIPFKFHMLHSGLVHGLAFWFDVAFIGSIMTVWLSTAPTEPLTHWYQVRCLFQSPLFAKAGDTLSGTCLLIANKRQSYDISIVAQVDQTGSKSSNLLDLKNPFFRYTGTTPSPPPGSHYTSPSENMWNTGSTYNLSSGMAVAGMPTAYDLSSVIASGSSVGHNNLIPLANTGIVNHTHSRMGSIMSTGIVQGSSGAQGSGGGSTSAHYAVNSQFTMGGPAISMASPMSIPTNTMHYGS
modifications: left off: FLAG, end not stated, kept
notes: CARM1 28–608 lacks the first, unstructured 28 residues
Regarding B1, the “Total levels of ADMA modification” value with HEK293T CARM1 KO cells [1] is on record as “recovered to the level of parental cells”. Further, in assay [2], the “Co-precipitation of BAF155, MED12, PABP1, NCOA3 and TET2” value is “all five proteins were co-precipitated”. The “Methylation of endogenous BAF155 and MED12” value with HEK293T CARM1 KO cells [3] is “methylation of endogenous BAF155 and MED12 was restored”. For the same molecule, the “Methylation of full-length BAF155” value in assay [4] is “methylated recombinant full-length BAF155 protein”.

B2: CARM1 FL: full-length CARM1, contained 608 residues (protein)
chain: MAAAAAAVGPGAGGAGSAVPGGAGPCATVSVFPGARLLTIGDANGEIQRHAEQQALRLEVRAGPDSAGIALYSHEDVCVFKCSVSRETECSRVGKQSFIITLGCNSVLIQFATPNDFCSFYNILKTCRGHTLERSVFSERTEESSAVQYFQFYGYLSQQQNMMQDYVRTGTYQRAILQNHTDFKDKIVLDVGCGSGILSFFAAQAGARKIYAVEASTMAQHAEVLVKSNNLTDRIVVIPGKVEEVSLPEQVDIIISEPMGYMLFNERMLESYLHAKKYLKPSGNMFPTIGDVHLAPFTDEQLYMEQFTKANFWYQPSFHGVDLSALRGAAVDEYFRQPVVDTFDIRILMAKSVKYTVNFLEAKEGDLHRIEIPFKFHMLHSGLVHGLAFWFDVAFIGSIMTVWLSTAPTEPLTHWYQVRCLFQSPLFAKAGDTLSGTCLLIANKRQSYDISIVAQVDQTGSKSSNLLDLKNPFFRYTGTTPSPPPGSHYTSPSENMWNTGSTYNLSSGMAVAGMPTAYDLSSVIASGSSVGHNNLIPLANTGIVNHTHSRMGSIMSTGIVQGSSGAQGSGGGSTSAHYAVNSQFTMGGPAISMASPMSIPTNTMHYGS
modifications: left off: FLAG, end not stated, kept
notes: full-length CARM1, contained 608 residues
In the case of B2, the “Total levels of ADMA modification” value in the assay on HEK293T CARM1 KO cells [1] is listed as “recovered to the level of parental cells”. Moreover, the “Co-precipitation of BAF155, MED12, PABP1, NCOA3 and TET2” value in assay [2] was “all five proteins were co-precipitated”. The “Methylation of endogenous BAF155 and MED12” value in the assay on HEK293T CARM1 KO cells [3] was “methylation of endogenous BAF155 and MED12 was restored”. Besides, the “Methylation of full-length BAF155” value in assay [4] is “methylated recombinant full-length BAF155 protein”.
